{
  "source": "the nanobody polyreactivity screen of Harvey et al. (2022)",
  "data": [
    {"test": "yeast display, Sf9 membrane polyspecificity reagent, FACS + sequencing; frameworks hold sequencing errors", "how_it_was_run": "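A synthetic nanobody library was expressed on Saccharomyces cerevisiae BJ5465 by galactose induction for 36–48 hours. The library was stained for 1 hour at 4 °C with 10% biotinylated, detergent-solubilized Sf9 membrane reagent and enriched with streptavidin microbeads before FACS. Low and high (top ~1%) gates were set on anti-HA fluorescence for expression and streptavidin fluorescence for reagent binding, and each polyreactivity label reflects the gate of origin.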", "values": [
      {"sequence": "QVQLVESGGGLVQAGGSLRLSCAASGRTSYWYAMGWYRQAPGKERELVAVISSGGSTYYADSVKGRFTISRDNAKNTVYLQMNSLKPEDTAVYYCNAVVGRWFPYNLSDYWGQGTQVTVSS", "polyreactivity (PSR sort gate)": "low polyreactivity"},
      {"sequence": "QVQLVESGGGLVQAGGSLRLSCAASGRTVPYNAMGWYRQAPGKESELVAAISGRGGSTYYADSVKGRFTISRDNAKKTVYLQMTSLKPEDTAVYYCAARLPWSYYRTQGYNYWGQGTQVTVSS", "polyreactivity (PSR sort gate)": "high polyreactivity"},
      {"sequence": "QVQLVESGGGLVQAGGSLRLSCAASGRTVRRYARGWYRQAPGKERELVATIRSGDNTNYADSVKGRFTISRDNAKNTVYLQMNSLKPEDTAVYYCNRSPKSGQVTYLYSVNAHYDYWGQGTQVTVSS", "polyreactivity (PSR sort gate)": "low polyreactivity"},
      {"sequence": "QVQLVESGGGLVQAGGSLRLSCAASGRTVSYYAMGWYRQAPGKEREFVAAISSSGGSTNYADSVKGRFTISRDNAKNTVYLQMNSLKPEDTAVYYCNAGSGYTGVYRWYYWRYDYWGQGTQVTVSS", "polyreactivity (PSR sort gate)": "low polyreactivity"},
      {"sequence": "QVQLVESGGGLVQAGGSLRLSCAASGRTYNGYVMGGYRQAPGTEREFVAVINWSGGNTYDADSVKGRFTISRDNAKNTVSLQMNRLKPDDTAVYYCAPRRVRSYAYDYWGQGTQVTVSS", "polyreactivity (PSR sort gate)": "high polyreactivity"},
      {"sequence": "QVQLVESGGGLVQAGGSLRLSCAASGRTYRSNVMGWYRQAPGKERELVASITWSGGTTYYADSVKVRFTISRDNAKNTVYLQMNSLKPEDTAVYYCNAADERSQGWVGYDHWGQCTQVTVSS", "polyreactivity (PSR sort gate)": "low polyreactivity"},
      {"sequence": "QVQLVESGGGLVQAGGSLRLSCAASGRTYVYNAMGLYRHAPGKERELVAGITNGGSTNYADSVKGRFTISRDNAKNTVYLQMNSLKPEDTAVYYCNRDVKVLYASSHSPYGYDHWGQGTQVTVSS", "polyreactivity (PSR sort gate)": "low polyreactivity"},
      {"sequence": "QVQLVESGGGLVQAGGSLRLSCAASGRTYVYNAMGWYRQAPGKERELVAAISSSGGSTRYADSVKGRFTISRDNAKNTVYLQMNSVKPEDTAVYYCNRLRYSNRYDSWGQGTQVTVSS", "polyreactivity (PSR sort gate)": "high polyreactivity"},
      {"sequence": "QVQLVESGGGLVQAGGSLRLSCAASGRTYYNNAMGWYRQAPGKEREFVAAISASGGRTRYADSVKGRFTISRDNAKNTVYLQMNSLKPEDTAVYYCAAAGTSTLYWGQGTQVTVSS", "polyreactivity (PSR sort gate)": "high polyreactivity"},
      {"sequence": "QVQLVESGGGLVQAGGSLRLSCAASGRTYYYNAMGWYRQAPGKERELVAVISWDDGSTYYADSVKGRFTISRDKAMNSVYLQLNSLKPEDTAVYYCAAYDYLDYADDYWGQGTQVTVSS", "polyreactivity (PSR sort gate)": "low polyreactivity"},
      {"sequence": "QVQLVESGGGLVQAGGSLRLSCAASGRWLYAMGWYIQAHGKERELVAAISRSGGSTNYADSVKGRFTISRDNAKNTVYLQMNSLKPEDTAVYYCAATPYSYYTYQPEGEYWGQGTQVTVSS", "polyreactivity (PSR sort gate)": "low polyreactivity"},
      {"sequence": "QVQLVESGGGLVQAGGSLRLSCAASGRWLYAMGWYIQAPAKERELVAAISRSGGSTNYADSVKGRFTISRDNAKNTVYLQMNSLKPEDTAVYYCATKYNADTRYDYWGQGTQVTVSS", "polyreactivity (PSR sort gate)": "low polyreactivity"},
      {"sequence": "QVQLVESGGGLVQAGGSLRLSCAASGSAYHYAMGWYSQAPGKERELVASITWRGDTTYYADSVKGRFTISRDNAKITVYLQMNSLKPEDTAVYYCAARKFFRQGGKRYDYWGQGTQVTVSS", "polyreactivity (PSR sort gate)": "high polyreactivity"},
      {"sequence": "QVQLVESGGGLVQAGGSLRLSCAASGSFFVDDAMGWYRQAPGKERELVATISSDVSTYYADSVKGRFTISRDNAKTTVYIQMNSLKPEDTAVYYCAATVSLHWAYSFSLYLEDDYWGQATQVTVSS", "polyreactivity (PSR sort gate)": "low polyreactivity"},
      {"sequence": "QVQLVESGGGLVQAGGSLRLSCAASGSIAYNAMGCYRQAPGKERELVASIRASGGRTYYADSVKGRFTISRDNAKNTVYLQMNSLKPEDTAVYYCAAYAYNAIEYGYWGQGTQVTVSS", "polyreactivity (PSR sort gate)": "low polyreactivity"},
      {"sequence": "QVQLVESGGGLVQAGGSLRLSCAASGSICAYAMGWYRQAPGKERELVASISTSTDITYADSVKGRFTISRDNAKNTVYLQMNSLKPEDTAVYYCAATYWQWWGWYDYWGQGTQVTVSS", "polyreactivity (PSR sort gate)": "high polyreactivity"},
      {"sequence": "QVQLVESGGGLVQAGGSLRLSCAASGSICDDYAMGWYRQAPGKEWELVAAISSSGTSTYYADSVKGRFTISRDNAMYTVYLQMNSLKPEDTAVYYCSARSAILISGYLMDYWGQGTQVTVSS", "polyreactivity (PSR sort gate)": "low polyreactivity"}
    ]}
  ]
}
